{"source": "paper PMC8387475", "target": "UBR5 (UniProt O95071)", "experiment": "co-immunoprecipitation, immunoblot", "conditions": "reference: wild type SIRT7; sites T255,S259"}
{"substance": "SIRT7 (from UniProt Q9NRC8) SIRT7-2A (T255A/S259A)", "values": [{"measurement": "binding against the reference", "result": "stronger"}]}
